This note sets out measurements from IntAct's records for PubMed 22101932.

Sequences and labels used below:
B1: Telomere elongation protein est1 (Schizosaccharomyces pombe (strain ATCC 38366 / 972)), O74804 (parent)
chain: MSQQLSSNEICEEQGKLVKALCEAAQGGFKHDLYEKIIAIEIEVEKKLLNRLKSIQTNTFERPDIIWSCCHYKIIQHFRSRFREIHPRHVVEKKKTKKVFFKFLKTCAIFYQTCISELISKFQLDSYRPFFCKWTSSATVSSTISNDEMSSIPEASYSRNHMEALECVYNCFIYLGDMARYSSTCLKKRGAYDRALGFYDLAHRTLPGNGMHRNQIAVVWASDECIVESIYWFSSALCSEDPPKSALLNLLKQLIAFYRRCFAVHFEFVSPMMILLFIISDCCIHSLKEIQPFKCPSIMVKDLENSLLQSNIRNVGYEKKNLYYISSAFSNLLHCRYFNCNDRLRSFYYRFSSWLFHQTLACAKEVESERAPTSYLTSCLPSIKVILARVLESSPAFGFIERNELEQLSYHFRICEKFFKESSENKMLNLFEDYNEFGLCKSFICLFKRLNEDIIGPKLNINPPDYTTHPFSESIKRFYQISKILNLLLS
partner: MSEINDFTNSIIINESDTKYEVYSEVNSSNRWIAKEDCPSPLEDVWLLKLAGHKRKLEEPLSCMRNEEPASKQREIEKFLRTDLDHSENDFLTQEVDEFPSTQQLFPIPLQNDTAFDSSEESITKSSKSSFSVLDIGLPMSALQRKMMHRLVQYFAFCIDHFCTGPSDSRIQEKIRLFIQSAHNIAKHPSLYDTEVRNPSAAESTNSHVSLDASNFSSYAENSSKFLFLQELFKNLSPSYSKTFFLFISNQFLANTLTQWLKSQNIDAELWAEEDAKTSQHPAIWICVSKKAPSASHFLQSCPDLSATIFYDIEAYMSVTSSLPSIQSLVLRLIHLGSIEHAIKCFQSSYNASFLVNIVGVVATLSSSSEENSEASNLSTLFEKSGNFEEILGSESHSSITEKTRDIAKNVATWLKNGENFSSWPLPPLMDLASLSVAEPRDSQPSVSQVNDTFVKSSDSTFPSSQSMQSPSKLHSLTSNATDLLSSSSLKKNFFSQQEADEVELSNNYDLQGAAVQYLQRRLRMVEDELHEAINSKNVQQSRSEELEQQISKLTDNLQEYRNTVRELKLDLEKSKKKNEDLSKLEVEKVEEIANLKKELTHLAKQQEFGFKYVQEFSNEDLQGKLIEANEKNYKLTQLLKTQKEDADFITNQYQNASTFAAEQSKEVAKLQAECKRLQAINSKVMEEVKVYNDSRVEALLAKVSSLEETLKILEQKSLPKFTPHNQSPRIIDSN
B2: Coiled-coil quantitatively-enriched protein 1 (Schizosaccharomyces pombe (strain ATCC 38366 / 972)), Q10432 (parent)
chain: B1 partner
partner: B1 chain

In the first assay the parent is B1. To be noted: with ccq1_schpo ccq1, Q10432.
For R79A, the “effect of a mutation on the interaction” value is “disrupting interaction”.

For R180A, the “effect of a mutation on the interaction” value is reported as “disrupting interaction”.

On to R79A;R180A, for which the “effect of a mutation on the interaction” value was “disrupting interaction”.

Variants of B1 are the subject of another assay. To be noted: with ccq1_schpo ccq1, Q10432. This is another data set of the same source.
On to R79A, for which the “effect of a mutation on the interaction” value is listed as “decreasing interaction”.

With K73A, the “effect of a mutation on the interaction” value was “decreasing interaction”.

In the next assay the parent is B2. To be noted: with est1_schpo est1, O74804.
With T93D, the “effect of a mutation on the interaction” value was “disrupting interaction”.

For Q94A, the “effect of a mutation on the interaction” value was “decreasing interaction”.

Variants of B2 are the subject of the next assay. To be noted: with est1_schpo est1, O74804. The source holds these as a separate data set.
For T93D, the “effect of a mutation on the interaction” value was “disrupting interaction strength”.

For the variant T93E, the “effect of a mutation on the interaction” value is on record as “disrupting interaction strength”.

On to T93A, for which the “effect of a mutation on the interaction” value is listed as “disrupting interaction strength”.

For the variant Q94A, the “effect of a mutation on the interaction” value is recorded as “disrupting interaction”.
